Assay results as given in patent US20240261333A1, “NOVEL TARGETS FOR ENHANCING ANTI-TUMOR IMMUNITY” (THE BROAD INSTITUTE, INC., priority 2021, published 2024).

What was measured:
ANXA2 (human) = ANXA2 (human) (UniProt P07355); experiment: IgG control IP from lysate of cells overexpressing C-FLAG B3GNT2, then mass spectrometry
SUPT16H (human) = SUPT16H (human) (UniProt Q9Y5B9); experiment: as above
TCP1 (human) = TCP1 (human) (UniProt P17987); experiment: as above
CAPRIN1 (human) = CAPRIN1 (human) (UniProt Q14444); experiment: as above
Sequence of CAPRIN1 (human) (Q14444 2-709 limits assumed): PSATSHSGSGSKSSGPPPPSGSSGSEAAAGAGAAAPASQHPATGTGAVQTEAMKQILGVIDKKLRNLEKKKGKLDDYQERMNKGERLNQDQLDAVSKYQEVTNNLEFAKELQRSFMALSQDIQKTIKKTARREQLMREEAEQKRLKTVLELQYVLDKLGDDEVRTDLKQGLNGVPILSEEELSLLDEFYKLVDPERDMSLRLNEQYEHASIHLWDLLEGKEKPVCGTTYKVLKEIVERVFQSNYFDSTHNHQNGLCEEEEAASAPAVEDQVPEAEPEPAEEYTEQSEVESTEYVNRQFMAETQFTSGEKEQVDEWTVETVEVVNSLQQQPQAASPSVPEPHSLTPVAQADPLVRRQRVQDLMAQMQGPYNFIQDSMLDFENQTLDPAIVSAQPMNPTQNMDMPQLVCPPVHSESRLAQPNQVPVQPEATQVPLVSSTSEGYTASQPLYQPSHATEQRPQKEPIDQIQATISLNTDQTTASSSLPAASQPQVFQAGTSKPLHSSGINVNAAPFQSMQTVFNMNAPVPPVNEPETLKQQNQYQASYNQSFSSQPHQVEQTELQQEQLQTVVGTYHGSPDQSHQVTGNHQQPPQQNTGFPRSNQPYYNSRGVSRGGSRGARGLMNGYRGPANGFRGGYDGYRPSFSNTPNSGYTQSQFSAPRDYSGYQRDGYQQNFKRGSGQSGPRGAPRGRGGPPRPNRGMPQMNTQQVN

EIF3I (human) = EIF3I (human) (UniProt Q13347); experiment: as above
TFAM (human) = TFAM (human) (UniProt Q00059); experiment: as above
SRP14 (human) = SRP14 (human) (UniProt P37108); experiment: as above
MAGED2 (human) = MAGED2 (human) (UniProt Q9UNF1); experiment: as above
VIM (human) = VIM (human) (UniProt P08670); experiment: as above
PABPC1 (human) = PABPC1 (human) (UniProt P11940); experiment: as above
Sequence of PABPC1 (human) (P11940 whole entry): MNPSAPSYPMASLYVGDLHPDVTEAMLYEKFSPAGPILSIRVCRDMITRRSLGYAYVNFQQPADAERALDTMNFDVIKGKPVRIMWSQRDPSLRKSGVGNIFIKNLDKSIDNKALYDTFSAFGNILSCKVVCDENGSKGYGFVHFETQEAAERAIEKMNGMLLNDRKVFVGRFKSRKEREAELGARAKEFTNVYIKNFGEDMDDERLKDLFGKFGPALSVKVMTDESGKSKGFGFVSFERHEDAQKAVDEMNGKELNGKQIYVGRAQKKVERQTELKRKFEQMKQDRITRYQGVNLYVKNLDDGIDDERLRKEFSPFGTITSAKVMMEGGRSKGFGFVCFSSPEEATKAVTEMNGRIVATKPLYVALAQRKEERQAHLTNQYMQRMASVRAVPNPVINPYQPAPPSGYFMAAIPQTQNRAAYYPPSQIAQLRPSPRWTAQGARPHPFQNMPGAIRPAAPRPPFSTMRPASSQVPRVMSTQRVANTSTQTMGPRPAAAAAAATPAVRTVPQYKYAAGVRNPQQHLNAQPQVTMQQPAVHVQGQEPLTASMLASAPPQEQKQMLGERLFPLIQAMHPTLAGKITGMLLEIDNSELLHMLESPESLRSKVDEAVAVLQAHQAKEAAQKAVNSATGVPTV

KHDRBS1 (human) = KHDRBS1 (human) (UniProt Q07666); experiment: as above
CPSF6 (human) = CPSF6 (human) (UniProt Q16630); experiment: as above
CASC3 (human) = CASC3 (human) (UniProt O15234); experiment: as above
DDX1 (human) = DDX1 (human) (UniProt Q92499); experiment: co-IP with anti-FLAG, N-FLAG B3GNT2, mass spectrometry
GSN (human) = GSN (human) (UniProt P06396); experiment: as above
Sequence of GSN (human) (P06396 28-782 limits assumed): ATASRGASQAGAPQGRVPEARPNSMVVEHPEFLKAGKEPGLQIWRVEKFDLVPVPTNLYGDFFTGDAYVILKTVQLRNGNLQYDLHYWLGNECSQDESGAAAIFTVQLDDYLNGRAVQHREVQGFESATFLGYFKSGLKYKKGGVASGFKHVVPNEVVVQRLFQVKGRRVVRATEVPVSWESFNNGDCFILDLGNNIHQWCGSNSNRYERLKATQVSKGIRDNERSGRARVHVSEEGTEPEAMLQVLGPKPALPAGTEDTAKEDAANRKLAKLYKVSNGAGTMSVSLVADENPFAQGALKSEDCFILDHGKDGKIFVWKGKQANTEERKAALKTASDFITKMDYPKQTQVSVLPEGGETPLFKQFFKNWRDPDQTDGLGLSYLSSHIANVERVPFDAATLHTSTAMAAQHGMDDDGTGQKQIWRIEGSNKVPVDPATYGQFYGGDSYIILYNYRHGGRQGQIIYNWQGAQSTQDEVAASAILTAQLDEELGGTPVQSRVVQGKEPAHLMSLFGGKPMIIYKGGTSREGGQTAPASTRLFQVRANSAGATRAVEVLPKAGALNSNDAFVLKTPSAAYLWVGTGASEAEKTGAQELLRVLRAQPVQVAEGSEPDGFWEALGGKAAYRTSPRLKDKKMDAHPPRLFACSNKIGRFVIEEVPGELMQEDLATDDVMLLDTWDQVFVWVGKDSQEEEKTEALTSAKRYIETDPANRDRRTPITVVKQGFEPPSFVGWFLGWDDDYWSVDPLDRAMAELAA

MMS19 (human) = MMS19 (human) (UniProt Q96T76); experiment: as above
COPA (human) = COPA (human) (UniProt P53621); experiment: as above
Sequence of COPA (human) (P53621 whole entry): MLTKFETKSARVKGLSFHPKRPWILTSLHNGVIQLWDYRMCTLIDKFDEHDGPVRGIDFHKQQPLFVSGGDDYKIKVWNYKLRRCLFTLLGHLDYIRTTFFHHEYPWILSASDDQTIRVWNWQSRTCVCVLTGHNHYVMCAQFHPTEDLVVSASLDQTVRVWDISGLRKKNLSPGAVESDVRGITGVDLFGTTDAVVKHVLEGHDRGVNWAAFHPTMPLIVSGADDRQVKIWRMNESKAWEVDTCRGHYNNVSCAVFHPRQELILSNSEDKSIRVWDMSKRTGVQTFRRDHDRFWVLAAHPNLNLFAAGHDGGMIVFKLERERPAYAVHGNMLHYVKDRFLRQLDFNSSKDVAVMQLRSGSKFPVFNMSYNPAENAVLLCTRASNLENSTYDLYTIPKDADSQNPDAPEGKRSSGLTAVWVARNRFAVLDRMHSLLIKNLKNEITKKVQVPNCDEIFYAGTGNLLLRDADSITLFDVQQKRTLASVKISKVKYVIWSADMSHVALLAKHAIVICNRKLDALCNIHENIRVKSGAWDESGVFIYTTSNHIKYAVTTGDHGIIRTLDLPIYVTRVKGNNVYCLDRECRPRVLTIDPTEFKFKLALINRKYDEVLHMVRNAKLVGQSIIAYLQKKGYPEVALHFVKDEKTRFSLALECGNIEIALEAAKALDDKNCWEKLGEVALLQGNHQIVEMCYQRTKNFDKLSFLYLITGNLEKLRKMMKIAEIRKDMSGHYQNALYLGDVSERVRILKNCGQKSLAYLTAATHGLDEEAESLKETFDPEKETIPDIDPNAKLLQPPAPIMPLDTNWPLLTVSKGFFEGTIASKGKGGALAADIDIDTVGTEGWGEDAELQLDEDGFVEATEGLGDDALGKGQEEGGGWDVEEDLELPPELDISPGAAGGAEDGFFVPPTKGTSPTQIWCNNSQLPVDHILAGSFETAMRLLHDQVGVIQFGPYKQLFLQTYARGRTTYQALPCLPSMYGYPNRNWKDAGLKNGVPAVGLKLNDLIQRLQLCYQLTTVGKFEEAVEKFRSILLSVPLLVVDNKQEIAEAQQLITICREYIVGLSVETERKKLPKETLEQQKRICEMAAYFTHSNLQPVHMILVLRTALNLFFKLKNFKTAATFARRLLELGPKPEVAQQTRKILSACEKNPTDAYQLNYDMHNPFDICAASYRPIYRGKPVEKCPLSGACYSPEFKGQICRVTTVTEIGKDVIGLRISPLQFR

LCN1 (human) = LCN1 (human) (UniProt P31025); experiment: as above
LUC7L3 (human) = LUC7L3 (human) (UniProt O95232); experiment: as above
PSMA3 (human) = PSMA3 (human) (UniProt P25788); experiment: as above
SYNPO (human) = SYNPO (human) (UniProt Q8N3V7); experiment: as above
KCTD5 (human) = KCTD5 (human) (UniProt Q9NXV2); experiment: as above
Sequence of KCTD5 (human) (Q9NXV2 2-234 limits assumed): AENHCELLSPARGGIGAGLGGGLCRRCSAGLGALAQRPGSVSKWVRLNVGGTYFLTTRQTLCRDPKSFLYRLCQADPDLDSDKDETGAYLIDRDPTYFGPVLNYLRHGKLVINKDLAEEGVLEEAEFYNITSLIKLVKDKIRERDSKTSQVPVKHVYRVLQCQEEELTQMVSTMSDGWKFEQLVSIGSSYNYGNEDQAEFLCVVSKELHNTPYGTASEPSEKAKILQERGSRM

XPO1 (human) = XPO1 (human) (UniProt O14980); experiment: as above
RPL7 (human) = RPL7 (human) (UniProt P18124); experiment: as above
ENO1 = ENO1 (UniProt P06733); experiment: co-IP with anti-FLAG, mass spectrometry; N-FLAG B3GNT2
Sequence of ENO1 (P06733 2-434 limits assumed): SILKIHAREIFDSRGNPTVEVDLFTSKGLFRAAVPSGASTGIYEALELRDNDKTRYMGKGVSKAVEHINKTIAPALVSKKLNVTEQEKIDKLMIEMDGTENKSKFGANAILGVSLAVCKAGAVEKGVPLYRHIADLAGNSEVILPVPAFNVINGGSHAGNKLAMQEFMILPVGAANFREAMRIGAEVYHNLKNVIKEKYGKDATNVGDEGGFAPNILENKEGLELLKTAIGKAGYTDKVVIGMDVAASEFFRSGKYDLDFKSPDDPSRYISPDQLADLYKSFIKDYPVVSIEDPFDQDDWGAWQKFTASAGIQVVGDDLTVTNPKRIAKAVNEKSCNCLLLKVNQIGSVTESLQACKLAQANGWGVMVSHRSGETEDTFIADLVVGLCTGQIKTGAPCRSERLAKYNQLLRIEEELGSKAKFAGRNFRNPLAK

SPRR2E = SPRR2E (UniProt P22531); experiment: as above
Sequence of SPRR2E (P22531 whole entry): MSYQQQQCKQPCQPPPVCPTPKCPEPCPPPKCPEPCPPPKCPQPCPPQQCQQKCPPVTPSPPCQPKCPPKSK

SSR1 = SSR1 (UniProt P43307); experiment: as above
ATP5F1B = ATP5F1B (UniProt P06576); experiment: as above
STRAP = STRAP (UniProt Q9Y3F4); experiment: as above
Sequence of STRAP (Q9Y3F4 whole entry): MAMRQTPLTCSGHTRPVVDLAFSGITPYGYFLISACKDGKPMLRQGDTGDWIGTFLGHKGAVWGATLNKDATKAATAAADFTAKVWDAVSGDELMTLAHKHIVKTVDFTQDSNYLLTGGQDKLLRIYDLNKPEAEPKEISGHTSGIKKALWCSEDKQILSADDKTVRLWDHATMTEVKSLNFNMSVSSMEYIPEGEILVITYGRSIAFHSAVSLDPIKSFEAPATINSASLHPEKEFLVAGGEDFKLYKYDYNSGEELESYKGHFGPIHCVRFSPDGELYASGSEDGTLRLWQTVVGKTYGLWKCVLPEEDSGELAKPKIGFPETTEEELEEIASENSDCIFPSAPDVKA

FABP5 = FABP5 (UniProt Q01469); experiment: as above
UBA52 = UBA52 (UniProt P62987); experiment: as above
AHNAK = AHNAK (UniProt Q09666); experiment: as above
SERPINB12 = SERPINB12 (UniProt Q96P63); experiment: as above
S100A8 = S100A8 (UniProt P05109); experiment: as above
Sequence of S100A8 (P05109 whole entry): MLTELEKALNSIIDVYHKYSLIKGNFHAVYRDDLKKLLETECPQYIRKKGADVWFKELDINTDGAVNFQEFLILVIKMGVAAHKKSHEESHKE

TRIM21 = TRIM21 (UniProt P19474); experiment: as above
YWHAZ = YWHAZ (UniProt P63104); experiment: as above
ACTR3 = ACTR3 (UniProt P61158); experiment: as above
S100A9 = S100A9 (UniProt P06702); experiment: as above
PPIA = PPIA (UniProt P62937); experiment: as above
Sequence of PPIA (P62937 2-165 limits assumed): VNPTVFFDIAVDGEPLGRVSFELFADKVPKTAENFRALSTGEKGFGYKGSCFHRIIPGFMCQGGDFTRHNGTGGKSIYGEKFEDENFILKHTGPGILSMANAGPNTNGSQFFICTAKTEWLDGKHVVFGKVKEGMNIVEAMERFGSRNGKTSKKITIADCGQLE

PCMT1 = PCMT1 (UniProt P22061); experiment: as above
Sequence of PCMT1 (P22061 2-227 limits assumed): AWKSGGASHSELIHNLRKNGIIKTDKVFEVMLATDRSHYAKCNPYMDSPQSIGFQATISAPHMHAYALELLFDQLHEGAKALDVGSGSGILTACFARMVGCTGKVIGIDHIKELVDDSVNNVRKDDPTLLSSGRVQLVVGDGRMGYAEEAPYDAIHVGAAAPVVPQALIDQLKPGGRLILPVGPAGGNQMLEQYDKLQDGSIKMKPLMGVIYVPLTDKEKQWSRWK

## IgG control (Millipore Sigma 12-371) (antibody)
ANXA2 (human)
  co-IP mass spectrometry count (C-term IgG): 16
SUPT16H (human)
  co-IP mass spectrometry count (C-term IgG): 0
TCP1 (human)
  co-IP mass spectrometry count (C-term IgG): 0
CAPRIN1 (human)
  co-IP mass spectrometry count (C-term IgG): 6
EIF3I (human)
  co-IP mass spectrometry count (C-term IgG): 0
TFAM (human)
  co-IP mass spectrometry count (C-term IgG): 0
SRP14 (human)
  co-IP mass spectrometry count (C-term IgG): 0
MAGED2 (human)
  co-IP mass spectrometry count (C-term IgG): 0
VIM (human)
  co-IP mass spectrometry count (C-term IgG): 337
PABPC1 (human)
  co-IP mass spectrometry count (C-term IgG): 30
KHDRBS1 (human)
  co-IP mass spectrometry count (C-term IgG): 7
CPSF6 (human)
  co-IP mass spectrometry count (C-term IgG): 33
CASC3 (human)
  co-IP mass spectrometry count (C-term IgG): 0

## N-terminal FLAG tagged B3GNT2 (from UniProt Q9NY97 1-397) (enzyme)
DDX1 (human)
  co-IP mass spectrometry count: 7
GSN (human)
  co-IP mass spectrometry count: 2
MMS19 (human)
  co-IP/MS count, N-term FLAG: 4
COPA (human)
  co-IP/MS count, N-term FLAG: 2
LCN1 (human)
  co-IP mass spectrometry count: 11
LUC7L3 (human)
  co-IP/MS count, N-term FLAG: 4
PSMA3 (human)
  co-IP/MS count, N-term FLAG: 4
SYNPO (human)
  co-IP mass spectrometry count: 4
KCTD5 (human)
  co-IP mass spectrometry count: 2
XPO1 (human)
  co-IP/MS count, N-term FLAG: 2
RPL7 (human)
  co-IP mass spectrometry count: 10
ENO1
  co-IP mass spectrometry count: 5
SPRR2E
  co-IP mass spectrometry count: 16
SSR1
  co-IP mass spectrometry count: 3
ATP5F1B
  co-IP mass spectrometry count: 2
STRAP
  co-IP mass spectrometry count: 4
FABP5
  co-IP mass spectrometry count: 6
UBA52
  co-IP mass spectrometry count: 4
AHNAK
  co-IP mass spectrometry count: 3
SERPINB12
  co-IP mass spectrometry count: 4
S100A8
  co-IP mass spectrometry count: 15
TRIM21
  co-IP mass spectrometry count: 6
YWHAZ
  co-IP mass spectrometry count: 2
ACTR3
  co-IP mass spectrometry count: 3
S100A9
  co-IP mass spectrometry count: 18
PPIA
  co-IP mass spectrometry count: 6
PCMT1
  co-IP mass spectrometry count: 4
